Assay results reported in IntAct's records for PubMed 35512704.

B1: Speckle-type POZ protein (Homo sapiens), O43791 (parent)
chain: MSRVPSPPPPAEMSSGPVAESWCYTQIKVVKFSYMWTINNFSFCREEMGEVIKSSTFSSGANDKLKWCLRVNPKGLDEESKDYLSLYLLLVSCPKSEVRAKFKFSILNAKGEETKAMESQRAYRFVQGKDWGFKKFIRRDFLLDEANGLLPDDKLTLFCEVSVVQDSVNISGQNTMNMVKVPECRLADELGGLWENSRFTDCCLCVAGQEFQAHKAILAARSPVFSAMFEHEMEESKKNRVEINDVEPEVFKEMMCFIYTGKAPNLDKMADDLLAAADKYALERLKVMCEDALCSNLSVENAAEILILADLHSADQLKTQAVDFINYHASDVLETSGWKSMVVSHPHLVAEAYRSLASAQCPFLGPPRKRLKQS

Variants of: B1
Conditions: with brd4_human BRD4, O60885

| effect of a mutation on the interaction | Variant |
| --- | --- |
| disrupting interaction strength | Y87C |

Variants of: B1
Conditions: with ncoa3_human NCOA3, Q9Y6Q9
Sequence of ncoa3_human NCOA3, Q9Y6Q9 (Q9Y6Q9 whole entry, looked up): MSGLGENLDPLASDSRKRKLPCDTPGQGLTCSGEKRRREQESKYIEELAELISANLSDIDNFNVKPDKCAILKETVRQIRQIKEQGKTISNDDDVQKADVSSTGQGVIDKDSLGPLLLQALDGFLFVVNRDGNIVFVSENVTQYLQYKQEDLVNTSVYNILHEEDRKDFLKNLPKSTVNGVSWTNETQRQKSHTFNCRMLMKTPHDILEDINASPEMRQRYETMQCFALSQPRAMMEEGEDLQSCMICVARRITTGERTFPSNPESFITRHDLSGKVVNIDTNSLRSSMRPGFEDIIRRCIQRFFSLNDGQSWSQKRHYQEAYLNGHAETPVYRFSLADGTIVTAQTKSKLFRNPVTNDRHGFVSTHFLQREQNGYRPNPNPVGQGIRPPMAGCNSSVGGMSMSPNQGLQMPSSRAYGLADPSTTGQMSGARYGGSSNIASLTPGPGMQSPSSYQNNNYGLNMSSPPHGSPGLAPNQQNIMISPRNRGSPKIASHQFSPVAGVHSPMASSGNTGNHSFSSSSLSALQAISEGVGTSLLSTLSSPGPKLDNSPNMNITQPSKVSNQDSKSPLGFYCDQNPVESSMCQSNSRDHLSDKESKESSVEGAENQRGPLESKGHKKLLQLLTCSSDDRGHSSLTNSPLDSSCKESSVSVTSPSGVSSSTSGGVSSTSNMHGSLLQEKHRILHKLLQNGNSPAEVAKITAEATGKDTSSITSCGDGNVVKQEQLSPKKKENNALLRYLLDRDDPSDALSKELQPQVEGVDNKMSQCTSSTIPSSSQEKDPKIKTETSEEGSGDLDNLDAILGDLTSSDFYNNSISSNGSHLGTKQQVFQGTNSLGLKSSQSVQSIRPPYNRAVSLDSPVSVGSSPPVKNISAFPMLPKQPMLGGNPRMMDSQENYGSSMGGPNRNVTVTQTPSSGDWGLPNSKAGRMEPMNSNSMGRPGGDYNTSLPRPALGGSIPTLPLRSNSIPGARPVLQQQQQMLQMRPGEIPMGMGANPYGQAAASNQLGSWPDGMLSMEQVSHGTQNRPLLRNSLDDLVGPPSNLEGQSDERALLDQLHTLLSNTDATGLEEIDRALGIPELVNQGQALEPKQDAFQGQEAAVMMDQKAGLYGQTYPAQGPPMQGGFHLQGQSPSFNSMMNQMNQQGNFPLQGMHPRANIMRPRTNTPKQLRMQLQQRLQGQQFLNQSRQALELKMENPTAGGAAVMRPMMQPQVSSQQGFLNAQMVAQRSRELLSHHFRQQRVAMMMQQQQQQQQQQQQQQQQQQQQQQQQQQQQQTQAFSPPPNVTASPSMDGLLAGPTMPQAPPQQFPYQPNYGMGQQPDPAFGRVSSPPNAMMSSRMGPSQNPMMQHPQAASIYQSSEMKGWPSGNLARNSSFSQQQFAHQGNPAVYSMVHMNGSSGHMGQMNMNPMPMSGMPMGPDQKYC

| effect of a mutation on the interaction | Variant |
| --- | --- |
| disrupting interaction strength | Y87C |

Variants of: B1
Conditions: with jun_human JUN

| effect of a mutation on the interaction | Variant |
| --- | --- |
| disrupting interaction strength | Y87C |

Variants of: B1
Conditions: with akt1_human AKT1, P31749

| effect of a mutation on the interaction | Variant |
| --- | --- |
| with no effect | Y87C |

Variants of: B1
Conditions: with alk_human ALK

| effect of a mutation on the interaction | Variant |
| --- | --- |
| with no effect | Y87C |

Variants of: B1
Conditions: with aph1a_human APH1A

| effect of a mutation on the interaction | Variant |
| --- | --- |
| with no effect | Y87C |

Variants of: B1
Conditions: with arnt_human ARNT

| effect of a mutation on the interaction | Variant |
| --- | --- |
| with no effect | Y87C |

Variants of: B1
Conditions: with arc1a_human ARPC1A

| effect of a mutation on the interaction | Variant |
| --- | --- |
| with no effect | Y87C |

Variants of: B1
Conditions: with asxl2_human ASXL2, Q76L83

| effect of a mutation on the interaction | Variant |
| --- | --- |
| with no effect | Y87C |

Variants of: B1
Conditions: with bakor_human ATG14, Q6ZNE5

| effect of a mutation on the interaction | Variant |
| --- | --- |
| with no effect | Y87C |

Variants of: B1
Conditions: with atm_human ATM

| effect of a mutation on the interaction | Variant |
| --- | --- |
| with no effect | Y87C |

Variants of: B1
Conditions: with atpb_human ATP5F1B

| effect of a mutation on the interaction | Variant |
| --- | --- |
| with no effect | Y87C |

Variants of: B1
Conditions: with aurkb_human AURKB

| effect of a mutation on the interaction | Variant |
| --- | --- |
| with no effect | Y87C |

Variants of: B1
Conditions: with axin2_human AXIN2, Q9Y2T1
Sequence of axin2_human AXIN2, Q9Y2T1 (Q9Y2T1 whole entry): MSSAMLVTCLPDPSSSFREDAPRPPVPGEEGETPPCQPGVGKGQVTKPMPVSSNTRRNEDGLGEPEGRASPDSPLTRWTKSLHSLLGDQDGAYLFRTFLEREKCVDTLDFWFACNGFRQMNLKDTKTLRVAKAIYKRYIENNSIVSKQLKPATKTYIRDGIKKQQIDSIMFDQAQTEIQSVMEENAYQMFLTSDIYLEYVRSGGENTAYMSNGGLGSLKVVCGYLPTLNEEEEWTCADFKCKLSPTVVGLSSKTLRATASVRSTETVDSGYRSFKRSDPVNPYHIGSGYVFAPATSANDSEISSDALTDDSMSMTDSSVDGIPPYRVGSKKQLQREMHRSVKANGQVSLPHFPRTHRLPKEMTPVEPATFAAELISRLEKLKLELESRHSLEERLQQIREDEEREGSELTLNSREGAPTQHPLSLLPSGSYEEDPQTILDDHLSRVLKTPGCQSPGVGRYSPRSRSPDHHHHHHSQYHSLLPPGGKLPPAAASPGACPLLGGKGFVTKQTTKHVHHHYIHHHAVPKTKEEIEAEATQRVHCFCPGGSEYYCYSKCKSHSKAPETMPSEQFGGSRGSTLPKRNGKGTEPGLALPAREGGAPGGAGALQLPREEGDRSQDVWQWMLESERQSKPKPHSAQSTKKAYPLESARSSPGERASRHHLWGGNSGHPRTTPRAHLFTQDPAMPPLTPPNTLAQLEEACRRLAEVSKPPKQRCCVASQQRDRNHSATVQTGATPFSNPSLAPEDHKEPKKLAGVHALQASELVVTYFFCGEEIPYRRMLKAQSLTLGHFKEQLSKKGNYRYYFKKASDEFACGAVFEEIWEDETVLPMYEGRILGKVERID

| effect of a mutation on the interaction | Variant |
| --- | --- |
| with no effect | Y87C |

Variants of: B1
Conditions: with ufo_human AXL

| effect of a mutation on the interaction | Variant |
| --- | --- |
| with no effect | Y87C |

Variants of: B1
Conditions: with za2g_human AZGP1, P25311
Sequence of za2g_human AZGP1, P25311 (P25311 whole entry): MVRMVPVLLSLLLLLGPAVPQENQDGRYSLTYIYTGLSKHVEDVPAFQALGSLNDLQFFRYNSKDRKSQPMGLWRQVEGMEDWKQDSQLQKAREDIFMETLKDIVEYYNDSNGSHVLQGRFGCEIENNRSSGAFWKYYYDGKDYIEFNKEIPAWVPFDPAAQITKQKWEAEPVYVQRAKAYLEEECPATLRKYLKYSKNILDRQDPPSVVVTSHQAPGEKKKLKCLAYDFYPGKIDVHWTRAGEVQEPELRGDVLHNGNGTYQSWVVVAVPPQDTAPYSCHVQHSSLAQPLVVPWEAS

| effect of a mutation on the interaction | Variant |
| --- | --- |
| with no effect | Y87C |

Variants of: B1
Conditions: with b2mg_human B2M

| effect of a mutation on the interaction | Variant |
| --- | --- |
| with no effect | Y87C |

Variants of: B1
Conditions: with bap1_human BAP1, Q92560

| effect of a mutation on the interaction | Variant |
| --- | --- |
| with no effect | Y87C |

Variants of: B1
Conditions: with bcor_human BCOR

| effect of a mutation on the interaction | Variant |
| --- | --- |
| with no effect | Y87C |

Variants of: B1
Conditions: with bcorl_human BCORL1, Q5H9F3

| effect of a mutation on the interaction | Variant |
| --- | --- |
| with no effect | Y87C |

Variants of: B1
Conditions: with birc2_human BIRC2, Q13490

| effect of a mutation on the interaction | Variant |
| --- | --- |
| with no effect | Y87C |

Variants of: B1
Conditions: with brd4_human BRD4, O60885
Remark: another data set of the same source

| effect of a mutation on the interaction | Variant |
| --- | --- |
| with no effect | Y87C |

Variants of: B1
Conditions: with baba2_human BABAM2, Q9NXR7

| effect of a mutation on the interaction | Variant |
| --- | --- |
| with no effect | Y87C |

Variants of: B1
Conditions: with btg1_human BTG1, P62324
Sequence of btg1_human BTG1, P62324 (P62324 whole entry): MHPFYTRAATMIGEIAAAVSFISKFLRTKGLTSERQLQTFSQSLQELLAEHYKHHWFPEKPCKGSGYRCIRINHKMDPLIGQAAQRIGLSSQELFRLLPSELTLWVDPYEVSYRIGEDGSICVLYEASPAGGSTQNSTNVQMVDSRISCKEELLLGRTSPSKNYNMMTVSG

| effect of a mutation on the interaction | Variant |
| --- | --- |
| with no effect | Y87C |

Variants of: B1
Conditions: with ccnd1_human CCND1, P24385

| effect of a mutation on the interaction | Variant |
| --- | --- |
| with no effect | Y87C |

Variants of: B1
Conditions: with ccnd2_human CCND2, P30279

| effect of a mutation on the interaction | Variant |
| --- | --- |
| with no effect | Y87C |

Variants of: B1
Conditions: with ccnd3_human CCND3, P30281

| effect of a mutation on the interaction | Variant |
| --- | --- |
| with no effect | Y87C |

Variants of: B1
Conditions: with ccne1_human CCNE1, P24864
Sequence of ccne1_human CCNE1, P24864 (P24864 whole entry): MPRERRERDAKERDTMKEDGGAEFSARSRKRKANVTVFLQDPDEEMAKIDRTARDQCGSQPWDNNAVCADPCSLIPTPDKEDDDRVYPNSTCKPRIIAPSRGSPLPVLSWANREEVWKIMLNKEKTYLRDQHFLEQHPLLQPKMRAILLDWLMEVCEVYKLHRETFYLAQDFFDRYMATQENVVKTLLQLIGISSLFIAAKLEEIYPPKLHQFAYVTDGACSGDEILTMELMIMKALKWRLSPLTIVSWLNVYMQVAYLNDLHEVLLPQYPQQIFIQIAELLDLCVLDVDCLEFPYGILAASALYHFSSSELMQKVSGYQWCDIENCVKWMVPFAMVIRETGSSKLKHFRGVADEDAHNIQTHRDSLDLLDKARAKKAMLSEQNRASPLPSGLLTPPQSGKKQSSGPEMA

| effect of a mutation on the interaction | Variant |
| --- | --- |
| with no effect | Y87C |

Variants of: B1
Conditions: with cd44_human CD44, P16070

| effect of a mutation on the interaction | Variant |
| --- | --- |
| with no effect | Y87C |

Variants of: B1
Conditions: with cd79b_human CD79B

| effect of a mutation on the interaction | Variant |
| --- | --- |
| with no effect | Y87C |

Variants of: B1
Conditions: with cdc27_human CDC27, P30260

| effect of a mutation on the interaction | Variant |
| --- | --- |
| with no effect | Y87C |

Variants of: B1
Conditions: with cdc73_human CDC73, Q6P1J9

| effect of a mutation on the interaction | Variant |
| --- | --- |
| with no effect | Y87C |

Variants of: B1
Conditions: with cdk4_human CDK4, P11802

| effect of a mutation on the interaction | Variant |
| --- | --- |
| with no effect | Y87C |

Variants of: B1
Conditions: with cdk6_human CDK6, Q00534

| effect of a mutation on the interaction | Variant |
| --- | --- |
| with no effect | Y87C |

Variants of: B1
Conditions: with cdn2c_human CDKN2C

| effect of a mutation on the interaction | Variant |
| --- | --- |
| with no effect | Y87C |

Variants of: B1
Conditions: with chd1l_human CHD1L

| effect of a mutation on the interaction | Variant |
| --- | --- |
| with no effect | Y87C |

Variants of: B1
Conditions: with chd2_human CHD2, O14647

| effect of a mutation on the interaction | Variant |
| --- | --- |
| with no effect | Y87C |

Variants of: B1
Conditions: with chk2_human CHEK2, O96017
Sequence of chk2_human CHEK2, O96017 (O96017 whole entry): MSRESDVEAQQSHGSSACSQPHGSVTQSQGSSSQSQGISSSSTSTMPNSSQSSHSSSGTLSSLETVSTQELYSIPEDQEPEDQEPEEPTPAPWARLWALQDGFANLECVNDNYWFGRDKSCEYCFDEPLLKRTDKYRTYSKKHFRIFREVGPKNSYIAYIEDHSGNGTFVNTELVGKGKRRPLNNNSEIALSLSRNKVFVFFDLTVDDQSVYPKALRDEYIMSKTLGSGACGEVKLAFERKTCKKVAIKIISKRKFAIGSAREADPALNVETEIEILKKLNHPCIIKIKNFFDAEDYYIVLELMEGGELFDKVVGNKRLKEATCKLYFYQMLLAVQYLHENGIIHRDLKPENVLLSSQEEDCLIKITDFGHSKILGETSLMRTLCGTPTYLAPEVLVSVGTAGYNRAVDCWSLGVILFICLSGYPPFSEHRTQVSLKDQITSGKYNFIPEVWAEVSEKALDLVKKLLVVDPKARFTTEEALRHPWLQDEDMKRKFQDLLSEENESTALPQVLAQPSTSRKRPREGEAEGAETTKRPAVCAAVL

| effect of a mutation on the interaction | Variant |
| --- | --- |
| with no effect | Y87C |

Variants of: B1
Conditions: with ch3l1_human CHI3L1, P36222
Sequence of ch3l1_human CHI3L1, P36222 (P36222 whole entry): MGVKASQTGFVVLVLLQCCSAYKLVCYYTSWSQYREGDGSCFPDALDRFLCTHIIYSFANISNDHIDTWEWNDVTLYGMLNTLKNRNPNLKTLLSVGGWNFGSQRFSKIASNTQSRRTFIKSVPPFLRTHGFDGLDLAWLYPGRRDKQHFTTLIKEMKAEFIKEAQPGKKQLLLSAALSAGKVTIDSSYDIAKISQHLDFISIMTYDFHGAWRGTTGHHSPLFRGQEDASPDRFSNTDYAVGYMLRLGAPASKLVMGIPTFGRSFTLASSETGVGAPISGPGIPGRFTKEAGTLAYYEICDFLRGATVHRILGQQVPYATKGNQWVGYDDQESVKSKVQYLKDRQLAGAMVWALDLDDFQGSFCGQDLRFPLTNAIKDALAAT

| effect of a mutation on the interaction | Variant |
| --- | --- |
| with no effect | Y87C |

Variants of: B1
Conditions: with csf1r_human CSF1R

| effect of a mutation on the interaction | Variant |
| --- | --- |
| with no effect | Y87C |

Variants of: B1
Conditions: with ctla4_human CTLA4, P16410

| effect of a mutation on the interaction | Variant |
| --- | --- |
| with no effect | Y87C |

Variants of: B1
Conditions: with cul3_human CUL3, Q13618
Sequence of cul3_human CUL3, Q13618 (Q13618 whole entry): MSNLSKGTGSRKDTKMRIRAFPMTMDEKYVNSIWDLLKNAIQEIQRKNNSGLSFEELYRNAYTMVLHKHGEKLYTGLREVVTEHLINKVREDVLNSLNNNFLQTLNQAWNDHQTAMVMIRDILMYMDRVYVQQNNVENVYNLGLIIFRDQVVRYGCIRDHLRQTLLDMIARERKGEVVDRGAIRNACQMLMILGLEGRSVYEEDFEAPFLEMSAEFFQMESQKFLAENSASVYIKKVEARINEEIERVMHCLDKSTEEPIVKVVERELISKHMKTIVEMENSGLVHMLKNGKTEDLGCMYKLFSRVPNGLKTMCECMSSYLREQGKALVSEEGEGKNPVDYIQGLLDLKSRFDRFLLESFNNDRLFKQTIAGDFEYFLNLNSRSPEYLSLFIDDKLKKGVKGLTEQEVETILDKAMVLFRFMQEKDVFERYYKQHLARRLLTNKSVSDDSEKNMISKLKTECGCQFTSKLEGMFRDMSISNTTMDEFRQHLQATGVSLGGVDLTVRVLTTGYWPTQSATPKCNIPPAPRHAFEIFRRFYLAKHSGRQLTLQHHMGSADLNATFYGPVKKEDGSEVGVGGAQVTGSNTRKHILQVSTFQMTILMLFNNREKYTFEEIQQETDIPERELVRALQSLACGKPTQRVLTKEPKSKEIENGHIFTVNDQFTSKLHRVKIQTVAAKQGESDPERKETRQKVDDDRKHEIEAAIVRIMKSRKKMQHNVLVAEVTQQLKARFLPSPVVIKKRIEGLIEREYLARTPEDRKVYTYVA

| effect of a mutation on the interaction | Variant |
| --- | --- |
| with no effect | Y87C |

Variants of: B1
Conditions: with cul4b_human CUL4B

| effect of a mutation on the interaction | Variant |
| --- | --- |
| with no effect | Y87C |

Variants of: B1
Conditions: with daxx_human DAXX

| effect of a mutation on the interaction | Variant |
| --- | --- |
| with no effect | Y87C |

Variants of: B1
Conditions: with ddx5_human DDX5, P17844

| effect of a mutation on the interaction | Variant |
| --- | --- |
| with no effect | Y87C |
